These results are taken from publication PMC5430726.

The Kd is the equilibrium constant for the complex coming apart. As usually defined, the stoichiometry N is a count of units in the complex or per binding partner.

In experiment [1] the target is Grb2 C-terminal SH3 domain (SH3C), residues 155-217 (mouse) (UniProt Q60631). Description: ITC; free Grb2 SH3C in the cell (20 uM for the peptide, 40 uM for Vav) titrated with 280 uM SLP65 peptide or 600 uM Vav SH3N; 20 mM sodium phosphate, 100 mM NaCl, pH 6.0, 25 °C; one-site binding model. On the technique in general: In ITC the heat of successive injections is recorded.

In experiment [2] the target is Grb2 SH3C-SLP65 peptide binary complex (formed before Vav SH3N was added) (mouse) (UniProt Q60631). Kind of experiment: ITC; Vav SH3N titrated into the preformed Grb2 SH3C-SLP65 peptide binary complex (gives Complex 2, trimeric); 20 mM sodium phosphate, 100 mM NaCl, pH 6.0, 25 °C; Kd called approximate.
Grb2 SH3C-SLP65 peptide binary complex (formed before Vav SH3N was added) (mouse), sequence (Q60631 155-217, one chain of several): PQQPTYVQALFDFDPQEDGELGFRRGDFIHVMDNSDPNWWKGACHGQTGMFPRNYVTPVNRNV

Grb2 C-terminal SH3 domain (SH3C), residues 155-217 (mouse), sequence (Q60631 155-217): as the sequence (Q60631 155-217, one chain of several) above

With “Vav N-terminal SH3 domain (SH3N), residues 583-660 (from UniProt Q8VDU4 583-660) (domain or fragment)”, in experiment [1], the Kd was determined as 4.5 µM, the dH is -3.15 kcal/mol and the stoichiometry N came to 0.91. Moreover, in experiment [2], the Kd was 11.5 µM, the dH was -0.54 kcal/mol and the stoichiometry N was determined as 1.1.
